Source: patent US20210388087A1 (Chugai, published 2021)
Where a chain is given by its changes, count along the chain named. Numbers in names are those of the source. One block for each binder: values may come before it.

Key:
Human CD137 ECD = target: T1, Human CD137 ECD (human); experiment: Biacore SPR, vs parent H183/L072
T1 construct: entry includes C-terminal His-tag and biotin acceptor peptide; also called human CD137 extracellular domain; 4-1BB

Human CD3eg linker = target: T2, Human CD3eg linker (human); experiment: SPR; fold vs parent H183/L072
T2 construct: Single-chain construct; also called recombinant human CD3
T2 chain: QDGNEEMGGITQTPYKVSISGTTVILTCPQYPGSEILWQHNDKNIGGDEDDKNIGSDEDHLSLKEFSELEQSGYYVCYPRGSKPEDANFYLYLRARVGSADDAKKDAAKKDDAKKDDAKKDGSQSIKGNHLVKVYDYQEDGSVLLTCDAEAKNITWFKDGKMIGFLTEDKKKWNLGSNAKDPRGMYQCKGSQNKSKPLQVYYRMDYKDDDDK

T1 sequence (chain, as listed by the source limits assumed): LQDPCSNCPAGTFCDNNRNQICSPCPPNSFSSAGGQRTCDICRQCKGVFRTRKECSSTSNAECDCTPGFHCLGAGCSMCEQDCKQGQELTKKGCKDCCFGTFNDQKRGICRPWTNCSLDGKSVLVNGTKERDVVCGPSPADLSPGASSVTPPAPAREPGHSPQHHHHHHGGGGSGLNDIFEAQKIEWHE

fold change of affinity (Human CD137 ECD): 0.7 fold
B1: H183/L072 VL V94I (antibody, name in Kabat numbering, V domains shown)
VH: QVQLVESGGGLVQPGRSLRLSCAASGFTFSNAWMHWVRQAPGKGLEWVAQIKDKGNAYAAYYAPSVKGRFTISRDDSKNSIYLQMNSLKTEDTAVYYCHYVHYASASTVLPAFGVDAWGQGTTVTVSS
VL: DIVMTQSPLSLPVTPGEPASISCQASQELVHMNRNTYLHWYQQKPGQAPRLLIYKVSNRFPGVPDRFSGSGSGTDFTLKISRVEAEDVGVYYCAQGTSIPFTFGQGTKLEIK
notes: Dual-Ig

fold change of affinity (Human CD3eg linker): 0.8 fold
B2: H183/L072 VL S26A (antibody, name in Kabat numbering, V domains shown)
VH: B1 VH
VL: B1 VL with S26A, I99V

fold change of affinity (Human CD3eg linker): 1.1 fold
B3: H183/L072 VL A89K (antibody, name in Kabat numbering, V domains shown)
VH: B1 VH
VL: B1 VL with A94K, I99V

fold change of affinity (Human CD3eg linker): 0 fold
B4: H183/L072 VL A89E (antibody, name in Kabat numbering, V domains shown)
VH: B1 VH
VL: B1 VL with A94E, I99V

fold change of affinity (Human CD3eg linker): 0.3 fold
B5: H183/L072 VL A25I (antibody, name in Kabat numbering, V domains shown)
VH: B1 VH
VL: B1 VL with A25I, I99V

fold change of affinity (Human CD137 ECD): 0.1 fold
B6: H183/L072 VL Y32A (antibody, name in Kabat numbering, V domains shown)
VH: B1 VH
VL: B1 VL with Y37A, I99V
notes: Dual-Ig

fold change of affinity (Human CD137 ECD): 0.2 fold
B7: H183/L072 VL Y32L (antibody, name in Kabat numbering, V domains shown)
VH: B1 VH
VL: B1 VL with Y37L, I99V
notes: Dual-Ig

fold change of affinity (Human CD137 ECD): 0 fold
B8: H183/L072 VL Y32V (antibody, name in Kabat numbering, V domains shown)
VH: B1 VH
VL: B1 VL with Y37V, I99V
notes: Dual-Ig

fold change of affinity (Human CD3eg linker): 0 fold
B9: H183/L072 VL A89D (antibody, name in Kabat numbering, V domains shown)
VH: B1 VH
VL: B1 VL with A94D, I99V

fold change of affinity (Human CD3eg linker): 0.7 fold
B10: H183/L072 VL A89G (antibody, name in Kabat numbering, V domains shown)
VH: B1 VH
VL: B1 VL with A94G, I99V

fold change of affinity (Human CD3eg linker): 0 fold
B11: H183/L072 VL A25K (antibody, name in Kabat numbering, V domains shown)
VH: B1 VH
VL: B1 VL with A25K, I99V

fold change of affinity (Human CD3eg linker): 0 fold
B12: H183/L072 VL A25H (antibody, name in Kabat numbering, V domains shown)
VH: B1 VH
VL: B1 VL with A25H, I99V

fold change of affinity (Human CD137 ECD): 0.1 fold
B13: H183/L072 VL Y32G (antibody, name in Kabat numbering, V domains shown)
VH: B1 VH
VL: B1 VL with Y37G, I99V
notes: Dual-Ig

fold change of affinity (Human CD137 ECD): 0.2 fold
B14: H183/L072 VL Y32N (antibody, name in Kabat numbering, V domains shown)
VH: B1 VH
VL: B1 VL with Y37N, I99V
notes: Dual-Ig

fold change of affinity (Human CD137 ECD): 0.1 fold
B15: H183/L072 VL Y32H (antibody, name in Kabat numbering, V domains shown)
VH: B1 VH
VL: B1 VL with Y37H, I99V
notes: Dual-Ig

fold change of affinity (Human CD3eg linker): 0 fold
B16: H183/L072 VL A25D (antibody, name in Kabat numbering, V domains shown)
VH: B1 VH
VL: B1 VL with A25D, I99V

fold change of affinity (Human CD3eg linker): 0 fold
B17: H183/L072 VL A25R (antibody, name in Kabat numbering, V domains shown)
VH: B1 VH
VL: B1 VL with A25R, I99V

fold change of affinity (Human CD3eg linker): 0 fold
B18: H183/L072 VL A25Q (antibody, name in Kabat numbering, V domains shown)
VH: B1 VH
VL: B1 VL with A25Q, I99V

fold change of affinity (Human CD137 ECD): 0.7 fold
B19: H183/L072 VL V94M (antibody, name in Kabat numbering, V domains shown)
VH: B1 VH
VL: B1 VL with I99M
notes: Dual-Ig

fold change of affinity (Human CD3eg linker): 0.9 fold
B20: H183/L072 VL A25G (antibody, name in Kabat numbering, V domains shown)
VH: B1 VH
VL: B1 VL with A25G, I99V

fold change of affinity (Human CD137 ECD): 0.2 fold
B21: H183/L072 VL V94N (antibody, name in Kabat numbering, V domains shown)
VH: B1 VH
VL: B1 VL with I99N
notes: Dual-Ig

fold change of affinity (Human CD3eg linker): 0.5 fold
B22: H183/L072 VL A25N (antibody, name in Kabat numbering, V domains shown)
VH: B1 VH
VL: B1 VL with A25N, I99V

fold change of affinity (Human CD137 ECD): 0 fold
B23: H183/L072 VL Y32M (antibody, name in Kabat numbering, V domains shown)
VH: B1 VH
VL: B1 VL with Y37M, I99V
notes: Dual-Ig

fold change of affinity (Human CD3eg linker): 0 fold
B24: H183/L072 VL A89H (antibody, name in Kabat numbering, V domains shown)
VH: B1 VH
VL: B1 VL with A94H, I99V

fold change of affinity (Human CD3eg linker): 0.2 fold
B25: H183/L072 VL A89F (antibody, name in Kabat numbering, V domains shown)
VH: B1 VH
VL: B1 VL with A94F, I99V

fold change of affinity (Human CD3eg linker): 0 fold
B26: H183/L072 VL A25E (antibody, name in Kabat numbering, V domains shown)
VH: B1 VH
VL: B1 VL with A25E, I99V

fold change of affinity (Human CD137 ECD): 0.4 fold
B27: H183/L072 VL V94R (antibody, name in Kabat numbering, V domains shown)
VH: B1 VH
VL: B1 VL with I99R
notes: Dual-Ig

fold change of affinity (Human CD3eg linker): 1.3 fold
B28: H183/L072 VL A25S (antibody, name in Kabat numbering, V domains shown)
VH: B1 VH
VL: B1 VL with A25S, I99V

fold change of affinity (Human CD3eg linker): 1.1 fold
B29: H183/L072 VL A25T (antibody, name in Kabat numbering, V domains shown)
VH: B1 VH
VL: B1 VL with A25T, I99V

fold change of affinity (Human CD137 ECD): 0.1 fold
B30: H183/L072 VL V94K (antibody, name in Kabat numbering, V domains shown)
VH: B1 VH
VL: B1 VL with I99K
notes: Dual-Ig

fold change of affinity (Human CD137 ECD): 0.7 fold
B31: H183/L072 VL Y32W (antibody, name in Kabat numbering, V domains shown)
VH: B1 VH
VL: B1 VL with Y37W, I99V
notes: Dual-Ig

fold change of affinity (Human CD137 ECD): 0.2 fold
B32: H183/L072 VL Y32Q (antibody, name in Kabat numbering, V domains shown)
VH: B1 VH
VL: B1 VL with Y37Q, I99V
notes: Dual-Ig

fold change of affinity (Human CD137 ECD): 0 fold
B33: H183/L072 VL V94S (antibody, name in Kabat numbering, V domains shown)
VH: B1 VH
VL: B1 VL with I99S
notes: Dual-Ig

fold change of affinity (Human CD3eg linker): 0 fold
B34: H183/L072 VL A25M (antibody, name in Kabat numbering, V domains shown)
VH: B1 VH
VL: B1 VL with A25M, I99V

fold change of affinity (Human CD137 ECD): 0 fold
B35: H183/L072 VL Y32I (antibody, name in Kabat numbering, V domains shown)
VH: B1 VH
VL: B1 VL with Y37I, I99V
notes: Dual-Ig

fold change of affinity (Human CD137 ECD): 0.1 fold
B36: H183/L072 VL V94P (antibody, name in Kabat numbering, V domains shown)
VH: B1 VH
VL: B1 VL with I99P
notes: Dual-Ig

fold change of affinity (Human CD3eg linker): 0.9 fold
B37: H183/L072 VL A25V (antibody, name in Kabat numbering, V domains shown)
VH: B1 VH
VL: B1 VL with A25V, I99V

fold change of affinity (Human CD137 ECD): 1.7 fold
B38: H183/L072 VL Y32F (antibody, name in Kabat numbering, V domains shown)
VH: B1 VH
VL: B1 VL with Y37F, I99V
notes: Dual-Ig

fold change of affinity (Human CD137 ECD): 0.3 fold
B39: H183/L072 VL V94L (antibody, name in Kabat numbering, V domains shown)
VH: B1 VH
VL: B1 VL with I99L
notes: Dual-Ig

fold change of affinity (Human CD137 ECD): 0.4 fold
B40: H183/L072 VL V94T (antibody, name in Kabat numbering, V domains shown)
VH: B1 VH
VL: B1 VL with I99T
notes: Dual-Ig

fold change of affinity (Human CD137 ECD): 0 fold
B41: H183/L072 VL Y32P (antibody, name in Kabat numbering, V domains shown)
VH: B1 VH
VL: B1 VL with Y37P, I99V
notes: Dual-Ig

fold change of affinity (Human CD137 ECD): 0.8 fold
B42: H183/L072 VL V94Q (antibody, name in Kabat numbering, V domains shown)
VH: B1 VH
VL: B1 VL with I99Q
notes: Dual-Ig

fold change of affinity (Human CD3eg linker): 1.2 fold
B43: H183/L072 VL A25P (antibody, name in Kabat numbering, V domains shown)
VH: B1 VH
VL: B1 VL with A25P, I99V

fold change of affinity (Human CD137 ECD): 0 fold
B44: H183/L072 VL V94W (antibody, name in Kabat numbering, V domains shown)
VH: B1 VH
VL: B1 VL with I99W
notes: Dual-Ig
